# B1: Syndecan-2 (Rattus norvegicus (Rat)), P34900 (parent)
# chain: MQRAWILLTLGLMACVSAETRAELTSDKDMYLDSSSIEEASGLYPIDDDDYSSASGSGAYEDKGSPDLTTSQLIPRISLTSAAPEVETMTLKTQSITPTQTESPEETDKKEFEISEAEEKQDPAVKSTDVYTEKHSDNLFKRTEVLAAVIAGGVIGFLFAIFLILLLVYRMRKKDEGSYDLGERKPSSAAYQKAPTKEFYA
# Variants of: B1
# Conditions: with nf1_human NF1, P21359
# Chain of nf1_human NF1, P21359 (P21359 whole entry): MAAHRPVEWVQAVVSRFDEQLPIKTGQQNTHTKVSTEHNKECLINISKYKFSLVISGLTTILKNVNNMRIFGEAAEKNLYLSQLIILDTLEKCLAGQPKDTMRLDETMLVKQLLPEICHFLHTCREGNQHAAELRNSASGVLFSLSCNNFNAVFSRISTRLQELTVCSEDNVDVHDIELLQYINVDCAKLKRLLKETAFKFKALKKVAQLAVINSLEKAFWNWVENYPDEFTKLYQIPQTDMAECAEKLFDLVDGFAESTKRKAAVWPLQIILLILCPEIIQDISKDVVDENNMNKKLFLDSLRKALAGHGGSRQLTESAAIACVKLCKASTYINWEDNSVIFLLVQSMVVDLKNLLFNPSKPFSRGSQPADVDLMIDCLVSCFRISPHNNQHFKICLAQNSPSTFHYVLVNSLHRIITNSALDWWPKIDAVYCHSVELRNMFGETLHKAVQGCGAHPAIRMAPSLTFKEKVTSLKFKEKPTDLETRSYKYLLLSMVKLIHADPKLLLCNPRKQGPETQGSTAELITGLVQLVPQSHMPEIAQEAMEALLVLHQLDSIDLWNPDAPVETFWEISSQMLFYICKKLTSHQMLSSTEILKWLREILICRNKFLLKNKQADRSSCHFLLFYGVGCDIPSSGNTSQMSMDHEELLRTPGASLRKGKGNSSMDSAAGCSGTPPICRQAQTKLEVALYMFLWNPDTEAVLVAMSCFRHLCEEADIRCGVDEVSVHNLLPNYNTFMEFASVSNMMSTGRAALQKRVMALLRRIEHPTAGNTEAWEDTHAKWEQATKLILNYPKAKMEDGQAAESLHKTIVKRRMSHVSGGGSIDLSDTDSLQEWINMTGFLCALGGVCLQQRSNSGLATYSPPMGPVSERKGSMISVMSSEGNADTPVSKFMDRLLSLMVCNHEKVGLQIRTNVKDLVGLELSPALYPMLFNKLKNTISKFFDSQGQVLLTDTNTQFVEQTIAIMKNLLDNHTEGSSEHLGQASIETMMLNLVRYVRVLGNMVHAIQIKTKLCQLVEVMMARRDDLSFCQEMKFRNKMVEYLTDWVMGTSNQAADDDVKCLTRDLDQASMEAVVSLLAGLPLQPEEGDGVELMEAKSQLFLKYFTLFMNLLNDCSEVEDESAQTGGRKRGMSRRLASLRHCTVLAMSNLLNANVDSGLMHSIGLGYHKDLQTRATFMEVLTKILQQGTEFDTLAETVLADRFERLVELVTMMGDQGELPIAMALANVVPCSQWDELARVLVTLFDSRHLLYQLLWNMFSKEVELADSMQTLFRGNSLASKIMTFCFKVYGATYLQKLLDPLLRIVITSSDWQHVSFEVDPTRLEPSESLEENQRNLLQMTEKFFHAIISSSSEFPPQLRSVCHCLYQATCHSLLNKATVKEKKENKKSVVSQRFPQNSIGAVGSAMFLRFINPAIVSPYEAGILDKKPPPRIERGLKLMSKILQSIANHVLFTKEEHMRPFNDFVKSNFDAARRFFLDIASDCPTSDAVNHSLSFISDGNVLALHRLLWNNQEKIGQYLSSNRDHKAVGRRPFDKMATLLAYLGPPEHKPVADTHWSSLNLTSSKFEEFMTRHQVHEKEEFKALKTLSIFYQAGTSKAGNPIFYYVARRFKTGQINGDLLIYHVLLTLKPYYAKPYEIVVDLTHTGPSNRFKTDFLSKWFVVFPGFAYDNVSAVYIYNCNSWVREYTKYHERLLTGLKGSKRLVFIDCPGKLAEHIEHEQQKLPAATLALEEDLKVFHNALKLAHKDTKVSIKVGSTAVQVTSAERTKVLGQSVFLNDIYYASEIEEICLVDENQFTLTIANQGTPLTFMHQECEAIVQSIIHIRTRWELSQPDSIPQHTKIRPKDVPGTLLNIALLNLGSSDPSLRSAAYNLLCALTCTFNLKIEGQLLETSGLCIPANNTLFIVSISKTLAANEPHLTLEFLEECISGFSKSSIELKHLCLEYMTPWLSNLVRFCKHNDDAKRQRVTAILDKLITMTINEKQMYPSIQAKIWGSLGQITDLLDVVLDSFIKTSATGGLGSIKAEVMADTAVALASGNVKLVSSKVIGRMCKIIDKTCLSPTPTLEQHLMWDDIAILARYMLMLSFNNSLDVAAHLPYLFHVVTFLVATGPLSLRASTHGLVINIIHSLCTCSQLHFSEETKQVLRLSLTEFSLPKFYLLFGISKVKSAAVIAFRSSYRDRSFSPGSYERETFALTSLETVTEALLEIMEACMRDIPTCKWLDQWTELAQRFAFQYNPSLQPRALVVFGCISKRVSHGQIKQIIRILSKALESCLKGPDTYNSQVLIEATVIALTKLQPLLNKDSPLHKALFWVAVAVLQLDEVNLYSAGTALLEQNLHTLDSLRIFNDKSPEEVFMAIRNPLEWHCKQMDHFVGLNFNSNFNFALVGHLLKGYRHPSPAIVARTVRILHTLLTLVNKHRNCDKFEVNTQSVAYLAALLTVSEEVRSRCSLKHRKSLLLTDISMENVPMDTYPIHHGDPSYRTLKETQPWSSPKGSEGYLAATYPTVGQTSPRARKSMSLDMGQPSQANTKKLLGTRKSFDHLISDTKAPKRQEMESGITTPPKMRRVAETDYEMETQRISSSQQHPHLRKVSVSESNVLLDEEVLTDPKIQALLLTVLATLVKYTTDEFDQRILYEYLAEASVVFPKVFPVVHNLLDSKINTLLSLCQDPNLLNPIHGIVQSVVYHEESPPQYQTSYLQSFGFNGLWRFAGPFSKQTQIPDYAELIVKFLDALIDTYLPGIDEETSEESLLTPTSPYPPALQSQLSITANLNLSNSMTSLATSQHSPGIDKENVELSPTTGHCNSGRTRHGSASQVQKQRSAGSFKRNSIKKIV
row,Variant,effect of a mutation on the interaction
1,K174A;D175A,decreasing interaction
2,R172A;K173A,decreasing interaction

# Next, values leading:
row,effect of a mutation on the interaction,Variant
1,increasing interaction,S178A;Y179A
2,decreasing interaction,E176A;G177A

# Variants of: B1
# Conditions: with nf1_human NF1, P21359
# Remark: another data set of the same source
row,Variant,effect of a mutation on the interaction
1,S178A;Y179A,decreasing interaction

# Source: IntAct's records for PubMed 11356864
